Laboratory results taken from the supplement of paper PMC5998384.

Key:
HeLa Kyoto [1] = assay: melting temperature (median over replicates), in situ; higher = more thermally stable
HeLa Kyoto [2] = assay: solubility in G1/S (NP-40 vs SDS abundance) (log2 ratio); higher = more soluble; details: cell cycle stage: G1/S
HeLa Kyoto [3] = assay: thermal stability score vs G1/S (z-score of summed log2 fold changes over temperatures); higher = more thermally stable than in G1/S
HeLa Kyoto [4] = assay: solubility change mitosis vs G1/S (difference of NP-40 vs SDS log2 ratios) (log2 ratio difference); higher = more soluble in mitosis
[5] = cell cycle stage: early G1 (4.5 h after nocodazole release)
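Wherever melting temperature (median over replicates), in situ is given: HeLa Kyoto cells synchronized by double thymidine or nocodazole block, proteins quantified by TMT10plex mass spectrometry, three independent biological replicates.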
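Wherever solubility change mitosis vs G1/S (difference of NP-40 vs SDS log2 ratios) is given: synchronized HeLa Kyoto cells (double thymidine block for G1/S, nocodazole release for mitosis), protein amounts in NP-40 versus SDS lysates quantified by mass spectrometry, three biological replicates.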
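Wherever solubility in G1/S (NP-40 vs SDS abundance) is given: HeLa Kyoto cells arrested at G1/S by double thymidine block, proteins quantified by TMT10plex mass spectrometry in mild NP-40 versus SDS extracts, three biological replicates.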
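Wherever thermal stability score vs G1/S (z-score of summed log2 fold changes over temperatures) is given: synchronized HeLa Kyoto cells, proteins quantified by TMT10plex mass spectrometry, three biological replicates, mitosis taken 0.5 h after nocodazole release, G1/S directly after double thymidine block.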

Sequence | melting temperature (HeLa Kyoto [1]; cell cycle stage: G1/S) [°C] | melting temperature (HeLa Kyoto [1]; cell cycle stage: mitosis) [°C] | solubility in G1/S (log2) (HeLa Kyoto [2]) | thermal stability score (HeLa Kyoto [3]; [5]) | thermal stability score (HeLa Kyoto [3]; cell cycle stage: mitosis) | solubility change mitosis (log2) (HeLa Kyoto [4])
MTGQGQSASGSSAWSTVFRHVRYENLIAGVSGGVLSNLALHPLDLVKIRFAVSDGLELRPKYNGILHCLTTIWKLDGLRGLYQGVTPNIWGAGLSWGLYFFFYNAIKSYKTEGRAERLEATEYLVSAAEAGAMTLCITNPLWVTKTRLMLQYDAVVNSPHRQYKGMFDTLVKIYKYEGVRGLYKGFVPGLFGTSHGALQFMAYELLKLKYNQHINRLPEAQLSTVEYISVAALSKIFAVAATYPYQVVRARLQDQHMFYSGVIDVITKTWRKEGVGGFYKGIAPNLIRVTPACCITFVVYENVSHFLLDLREKRK [SLC25A32] | 56.8 | 56.7 | -0.199 | -0.577 | 0.155 | -0.12
MTGSNSHITILTLKVLPHFESLGKQEKIPNKMSAFRNHCPHLDSVGEITKEDLIQKSLGTCQDCKVQGPNLWACLENRCSYVGCGESQVDHSTIHSQETKHYLTVNLTTLRVWCYACSKEVFLDRKLGTQPSLPHVRQPHQIQENSVQDFKIPSNTTLKTPLVAVFDDLDIEADEEDELRARGLTGLKNIGNTCYMNAALQALSNCPPLTQFFLDCGGLARTDKKPAICKSYLKLMTELWHKSRPGSVVPTTLFQGIKTVNPTFRGYSQQDAQEFLRCLMDLLHEELKEQVMEVEEDPQTITTEETMEEDKSQSDVDFQSCESCSNSDRAENENGSRCFSEDNNETTMLIQDDENNSEMSKDWQKEKMCNKINKVNSEGEFDKDRDSISETVDLNNQETVKVQIHSRASEYITDVHSNDLSTPQILPSNEGVNPRLSASPPKSGNLWPGLAPPHKKAQSASPKRKKQHKKYRSVISDIFDGTIISSVQCLTCDRVSVTLETFQDLSLPIPGKEDLAKLHSSSHPTSIVKAGSCGEAYAPQGWIAFFMEYVKRFVVSCVPSWFWGPVVTLQDCLAAFFARDELKGDNMYSCEKCKKLRNGVKFCKVQNFPEILCIHLKRFRHELMFSTKISTHVSFPLEGLDLQPFLAKDSPAQIVTYDLLSVICHHGTASSGHYIAYCRNNLNNLWYEFDDQSVTEVSESTVQNAEAYVLFYRKSSEEAQKERRRISNLLNIMEPSLLQFYISRQWLNKFKTFAEPGPISNNDFLCIHGGVPPRKAGYIEDLVLMLPQNIWDNLYSRYGGGPAVNHLYICHTCQIEAEKIEKRRKTELEIFIRLNRAFQKEDSPATFYCISMQWFREWESFVKGKDGDPPGPIDNTKIAVTKCGNVMLRQGADSGQISEETWNFLQSIYGGGPEVILRPPVVHVDPDILQAEEKIEVETRSL [USP33] | 51.5 | 51 | -0.427 | 1.09 | 2.47 | -0.00182
MTHSLVCPETVSRVSSVLNRNTRQFGKKHLFDQDEETCWNSDQGPSQWVTLEFPQLIRVSQLQIQFQGGFSSRRGCLEGSQGTQALHKIVDFYPEDNNSLQTFPIPAAEVDRLKVTFEDATDFFGRVVIYHLRVLGEKV [NR2C2AP] | 53.3 | 52.8 | 0.195 | 0.143 | -0.215 | -0.238
MTLEAIRYSRGSLQILDQLLLPKQSRYEAVGSVHQAWEAIRAMKVRGAPAIALVGCLSLAVELQAGAGGPGLAALVAFVRDKLSFLVTARPTAVNMARAARDLADVAAREAEREGATEEAVRERVICCTEDMLEKDLRDNRSIGDLGARHLLERVAPSGGKVTVLTHCNTGALATAGYGTALGVIRSLHSLGRLEHAFCTETRPYNQGARLTAFELVYEQIPATLITDSMVAAAMAHRGVSAVVVGADRVVANGDTANKVGTYQLAIVAKHHGIPFYVAAPSSSCDLRLETGKEIIIEERPGQELTDVNGVRIAAPGIGVWNPAFDVTPHDLITGGIITELGVFAPEELRTALTTTISSRDGTLDGPQM [MRI1] | 52.5 | 52.4 | 0.21 | -0.841 | -0.966 | -0.154
MTLTERLREKISRAFYNHGLLCASYPIPIILFTGFCILACCYPLLKLPLPGTGPVEFTTPVKDYSPPPVDSDRKQGEPTEQPEWYVGAPVAYVQQIFVKSSVFPWHKNLLAVDVFRSPLSRAFQLVEEIRNHVLRDSSGIRSLEELCLQVTDLLPGLRKLRNLLPEHGCLLLSPGNFWQNDWERFHADPDIIGTIHQHEPKTLQTSATLKDLLFGVPGKYSGVSLYTRKRMVSYTITLVFQHYHAKFLGSLRARLMLLHPSPNCSLRAESLVHVHFKEEIGVAELIPLVTTYIILFAYIYFSTRKIDMVKSKWGLALAAVVTVLSSLLMSVGLCTLFGLTPTLNGGEIFPYLVVVIGLENVLVLTKSVVSTPVDLEVKLRIAQGLSSESWSIMKNMATELGIILIGYFTLVPAIQEFCLFAVVGLVSDFFLQMLFFTTVLSIDIRRMELADLNKRLPPEACLPSAKPVGQPTRYERQLAVRPSTPHTITLQPSSFRNLRLPKRLRVVYFLARTRLAQRLIMAGTVVWIGILVYTDPAGLRNYLAAQVTEQSPLGEGALAPMPVPSGMLPPSHPDPAFSIFPPDAPKLPENQTSPGESPERGGPAEVVHDSPVPEVTWGPEDEELWRKLSFRHWPTLFSYYNITLAKRYISLLPVIPVTLRLNPREALEGRHPQDGRSAWPPPGPIPAGHWEAGPKGPGGVQAHGDVTLYKVAALGLATGIVLVLLLLCLYRVLCPRNYGQLGGGPGRRRRGELPCDDYGYAPPETEIVPLVLRGHLMDIECLASDGMLLVSCCLAGHVCVWDAQTGDCLTRIPRPGRQRRDSGVGSGLEAQESWERLSDGGKAGPEEPGDSPPLRHRPRGPPPPSLFGDQPDLTCLIDTNFSAQPRSSQPTQPEPRHRAVCGRSRDSPGYDFSCLVQRVYQEEGLAAVCTPALRPPSPGPVLSQAPEDEGGSPEKGSPSLAWAPSAEGSIWSLELQGNLIVVGRSSGRLEVWDAIEGVLCCSSEEVSSGITALVFLDKRIVAARLNGSLDFFSLETHTALSPLQFRGTPGRGSSPASPVYSSSDTVACHLTHTVPCAHQKPITALKAAAGRLVTGSQDHTLRVFRLEDSCCLFTLQGHSGAITTVYIDQTMVLASGGQDGAICLWDVLTGSRVSHVFAHRGDVTSLTCTTSCVISSGLDDLISIWDRSTGIKFYSIQQDLGCGASLGVISDNLLVTGGQGCVSFWDLNYGDLLQTVYLGKNSEAQPARQILVLDNAAIVCNFGSELSLVYVPSVLEKLD [SCAP] | 53.4 | 52.8 | -0.105 | -0.535 | 0.3 | -0.108
MTMPVNGAHKDADLWSSHDKMLAQPLKDSDVEVYNIIKKESNRQRVGLELIASENFASRAVLEALGSCLNNKYSEGYPGQRYYGGTEFIDELETLCQKRALQAYKLDPQCWGVNVQPYSGSPANFAVYTALVEPHGRIMGLDLPDGGHLTHGFMTDKKKISATSIFFESMPYKVNPDTGYINYDQLEENARLFHPKLIIAGTSCYSRNLEYARLRKIADENGAYLMADMAHISGLVAAGVVPSPFEHCHVVTTTTHKTLRGCRAGMIFYRKGVKSVDPKTGKEILYNLESLINSAVFPGLQGGPHNHAIAGVAVALKQAMTLEFKVYQHQVVANCRALSEALTELGYKIVTGGSDNHLILVDLRSKGTDGGRAEKVLEACSIACNKNTCPGDRSALRPSGLRLGTPALTSRGLLEKDFQKVAHFIHRGIELTLQIQSDTGVRATLKEFKERLAGDKYQAAVQALREEVESFASLFPLPGLPDF [SHMT1] | 58.2 | 58.2 | 0.366 | -2.14 | -2.12 | -0.0876
MTSEVIEDEKQFYSKAKTYWKQIPPTVDGMLGGYGHISSIDINSSRKFLQRFLREGPNKTGTSCALDCGAGIGRITKRLLLPLFREVDMVDITEDFLVQAKTYLGEEGKRVRNYFCCGLQDFTPEPDSYDVIWIQWVIGHLTDQHLAEFLRRCKGSLRPNGIIVIKDNMAQEGVILDDVDSSVCRDLDVVRRIICSAGLSLLAEERQENLPDEIYHVYSFALR [NTMT1] | 49.9 | 51.2 | 0.238 | 1.31 | 1.61 | -0.15
